Experimental data published in publication PMC9482650, “Quantitative fragmentomics allow affinity mapping of interactomes” (Nature Communications, 2022).

Columns and labels:
Assay in all cases: holdup assay
Set-up in all cases: key: below the threshold = too weak to quantify, mostly under pKd 3.1 to 4
[1] = molecular target: T1, DFNB31_1, Q9P202
T1 sequence (Q9P202 135-233, limits assumed, looked up): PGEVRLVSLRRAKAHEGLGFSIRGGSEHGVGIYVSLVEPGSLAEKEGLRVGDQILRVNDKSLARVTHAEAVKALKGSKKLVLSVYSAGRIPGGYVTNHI

[2] = molecular target: T2, HTRA3, P83110
T2 sequence (P83110 354-453, limits assumed, looked up): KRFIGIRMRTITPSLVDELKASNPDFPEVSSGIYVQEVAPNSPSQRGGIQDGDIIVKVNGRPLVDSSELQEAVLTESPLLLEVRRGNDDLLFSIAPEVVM

[3] = molecular target: T3, MPP2, Q14168
T3 sequence (Q14168 180-250, limits assumed, looked up): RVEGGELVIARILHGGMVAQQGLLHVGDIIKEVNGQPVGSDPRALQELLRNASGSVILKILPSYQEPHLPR

[4] = molecular target: FRMPD3, Q5JV73
Chain of FRMPD3, Q5JV73 (Q5JV73 12-100): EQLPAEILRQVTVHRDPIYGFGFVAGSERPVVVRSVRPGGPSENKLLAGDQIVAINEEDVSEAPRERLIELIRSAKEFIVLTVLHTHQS

[5] = molecular target: LNX1_2, Q8TBB1
Chain of LNX1_2, Q8TBB1 (Q8TBB1 371-470): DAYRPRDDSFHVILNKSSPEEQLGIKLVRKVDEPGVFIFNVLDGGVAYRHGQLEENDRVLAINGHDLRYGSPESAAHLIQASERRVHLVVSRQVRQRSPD

[6] = molecular target: T4, MPDZ_12, O75970
T4 sequence (O75970 1857-1958, limits assumed, looked up): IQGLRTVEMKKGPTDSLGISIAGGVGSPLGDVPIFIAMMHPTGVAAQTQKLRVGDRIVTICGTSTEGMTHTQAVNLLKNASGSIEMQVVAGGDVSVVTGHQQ

[7] = molecular target: NOS1, P29475
Chain of NOS1, P29475 (P29475 9-101): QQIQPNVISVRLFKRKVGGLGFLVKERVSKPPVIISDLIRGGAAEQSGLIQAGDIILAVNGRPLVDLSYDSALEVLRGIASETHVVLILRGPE

[8] = molecular target: GRASP, Q7Z6J2
Chain of GRASP, Q7Z6J2 (Q7Z6J2 96-193): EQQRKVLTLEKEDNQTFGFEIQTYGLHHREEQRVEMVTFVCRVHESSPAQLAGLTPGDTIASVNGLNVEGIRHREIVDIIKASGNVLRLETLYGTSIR

[9] = molecular target: TJP1_3, Q07157
Chain of TJP1_3, Q07157 (Q07157 416-512): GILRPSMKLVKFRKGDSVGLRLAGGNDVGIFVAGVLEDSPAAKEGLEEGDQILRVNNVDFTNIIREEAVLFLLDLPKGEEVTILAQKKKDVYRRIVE

[10] = molecular target: IL16_3, Q14005
Chain of IL16_3, Q14005 (Q14005 1107-1207): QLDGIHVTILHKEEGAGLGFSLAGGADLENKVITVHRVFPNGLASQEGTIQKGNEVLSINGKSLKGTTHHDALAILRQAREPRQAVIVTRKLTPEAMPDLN

[11] = molecular target: MAGI2_2, Q86UL8
Chain of MAGI2_2, Q86UL8 (Q86UL8 410-522): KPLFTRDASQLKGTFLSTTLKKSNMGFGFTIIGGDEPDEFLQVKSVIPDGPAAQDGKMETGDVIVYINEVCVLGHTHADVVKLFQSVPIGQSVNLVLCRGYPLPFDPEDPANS

[12] = molecular target: T5, DLG3_2, Q92796
T5 sequence (Q92796 221-321, limits assumed, looked up): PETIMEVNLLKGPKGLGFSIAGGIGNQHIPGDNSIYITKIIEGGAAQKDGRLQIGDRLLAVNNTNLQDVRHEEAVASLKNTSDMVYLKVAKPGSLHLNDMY

[13] = molecular target: GORASP2, Q9H8Y8
[14] = molecular target: PICK1, Q9NRD5
Chain of PICK1, Q9NRD5 (Q9NRD5 17-115): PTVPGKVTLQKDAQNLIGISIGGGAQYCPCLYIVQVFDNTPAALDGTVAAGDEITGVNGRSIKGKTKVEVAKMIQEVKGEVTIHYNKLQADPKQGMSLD

[15] = molecular target: T6, TIAM2, Q8IVF5
T6 sequence (Q8IVF5 885-986, limits assumed, looked up): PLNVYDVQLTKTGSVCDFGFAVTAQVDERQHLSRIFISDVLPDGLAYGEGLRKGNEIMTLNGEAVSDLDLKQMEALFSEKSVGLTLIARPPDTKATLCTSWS

[16] = molecular target: T7, PDZRN3_1, Q9UPQ7
T7 sequence (Q9UPQ7 244-349, limits assumed, looked up): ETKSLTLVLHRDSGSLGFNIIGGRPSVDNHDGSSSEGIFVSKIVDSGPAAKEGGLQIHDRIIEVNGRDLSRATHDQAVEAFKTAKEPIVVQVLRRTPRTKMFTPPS

[17] = molecular target: T8, APBA3_1, O96018
T8 sequence (O96018 389-490, limits assumed, looked up): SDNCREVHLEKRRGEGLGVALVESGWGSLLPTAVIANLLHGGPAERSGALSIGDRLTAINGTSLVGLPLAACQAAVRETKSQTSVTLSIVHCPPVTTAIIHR

[18] = molecular target: T9, GRIP1_4, Q9Y3R0
T9 sequence (Q9Y3R0 467-571, limits assumed, looked up): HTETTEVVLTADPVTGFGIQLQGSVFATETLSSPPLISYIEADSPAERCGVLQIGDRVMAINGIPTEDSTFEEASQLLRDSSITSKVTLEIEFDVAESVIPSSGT

[19] = molecular target: T10, RADIL, Q96JH8
T10 sequence (Q96JH8 971-1071, limits assumed, looked up): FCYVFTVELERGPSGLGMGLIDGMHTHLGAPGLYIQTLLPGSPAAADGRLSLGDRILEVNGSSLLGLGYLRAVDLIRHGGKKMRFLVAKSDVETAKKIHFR

[20] = molecular target: T11, DFNB31_3, Q9P202
T11 sequence (Q9P202 811-907, limits assumed, looked up): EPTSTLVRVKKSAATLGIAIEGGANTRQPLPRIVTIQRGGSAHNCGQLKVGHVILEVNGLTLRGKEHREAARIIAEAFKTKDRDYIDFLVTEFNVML

[21] = molecular target: DLG5_1, Q8TDM6
Chain of DLG5_1, Q8TDM6 (Q8TDM6 617-713): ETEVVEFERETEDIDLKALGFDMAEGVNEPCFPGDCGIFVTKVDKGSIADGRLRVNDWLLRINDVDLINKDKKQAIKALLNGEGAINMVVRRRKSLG

[22] = molecular target: GRIP2_4, Q9C0E4
Chain of GRIP2_4, Q9C0E4 (Q9C0E4 446-548): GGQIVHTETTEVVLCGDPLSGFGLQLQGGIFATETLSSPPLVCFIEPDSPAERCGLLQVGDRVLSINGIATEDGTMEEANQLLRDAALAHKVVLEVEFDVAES

[23] = molecular target: GRID2IP_2, A4D2P6
Chain of GRID2IP_2, A4D2P6 (A4D2P6 272-370): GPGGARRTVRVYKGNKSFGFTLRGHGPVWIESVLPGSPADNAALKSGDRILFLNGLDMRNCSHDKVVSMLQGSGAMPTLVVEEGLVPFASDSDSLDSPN

[24] = molecular target: GRIP2_6, Q9C0E4
Chain of GRIP2_6, Q9C0E4 (Q9C0E4 648-740): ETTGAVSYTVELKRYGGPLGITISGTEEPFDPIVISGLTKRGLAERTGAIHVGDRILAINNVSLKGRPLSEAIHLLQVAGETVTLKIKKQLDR

[25] = molecular target: IL16_4, Q14005
Chain of IL16_4, Q14005 (Q14005 1229-1329): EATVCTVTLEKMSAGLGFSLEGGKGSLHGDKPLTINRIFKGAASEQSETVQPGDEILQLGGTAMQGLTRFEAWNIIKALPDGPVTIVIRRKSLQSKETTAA

[26] = molecular target: Inadl_9, Q8NI35
Chain of Inadl_9, Q8NI35 (Q8NI35 1530-1615): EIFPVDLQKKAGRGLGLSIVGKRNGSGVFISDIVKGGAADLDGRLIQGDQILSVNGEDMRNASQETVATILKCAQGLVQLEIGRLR

[27] = plain residues with an end cap or a label only (N-terminal biotin on a linker: ttds)
[28] = plain residues with an end cap or a label only (N-terminal biotin on a linker: ado-ado)

Measured: pKd

B1: TANC2, Q9HCD6 (peptide)
chain: PKRPFVESNV
below the threshold: [1]; [27] | [2]; [27] | [3]; [27] | [4]; [27] | [5]; [27] | [6]; [27] | [7]; [27] | [8]; [27] | [9]; [27] | [10]; [27] | [11]; [27] | [13]; [27] | [14]; [27] | [15]; [27] | [16]; [27] | [17]; [27] | [18]; [27] | [19]; [27] | [20]; [27] | [21]; [27] | [22]; [27] | [23]; [27] | [24]; [27] | [25]; [27] | [26]; [27]
4.54: [12]; [27]

B2: HTLV1-TAX1, P03409 (peptide)
chain: SEKHFRETEV
5.56: [12]; [27]
4.57: [11]; [27]
3.71: [5]; [27]
5.1: [16]; [27]
4.09: [7]; [27]
below the threshold: [2]; [27] | [3]; [27] | [4]; [27] | [6]; [27] | [8]; [27] | [9]; [27] | [10]; [27] | [13]; [27] | [14]; [27] | [15]; [27] | [17]; [27] | [18]; [27] | [19]; [27] | [20]; [27] | [21]; [27] | [22]; [27] | [24]; [27] | [25]; [27] | [26]; [27]
3.84: [23]; [27]
3.96: [1]; [27]

B3: CIT, O14578 (peptide)
chain: VNKVWDQSSV
3.52: [1]; [27]
below the threshold: [2]; [27] | [3]; [27] | [4]; [27] | [5]; [27] | [6]; [27] | [7]; [27] | [9]; [27] | [10]; [27] | [11]; [27] | [12]; [27] | [13]; [27] | [14]; [27] | [15]; [27] | [17]; [27] | [18]; [27] | [19]; [27] | [20]; [27] | [21]; [27] | [22]; [27] | [24]; [27] | [25]; [27] | [26]; [27]
4.33: [8]; [27]
3.53: [16]; [27]
3.74: [23]; [27]

B4: KIDINS220, Q9ULH0 (peptide)
chain: GFGEERESIL
3.61: [19]; [28]
4.72: [16]; [28]
3.86: [23]; [28]
below the threshold: [1]; [28] | [2]; [28] | [3]; [28] | [4]; [28] | [5]; [28] | [6]; [28] | [7]; [28] | [9]; [28] | [10]; [28] | [11]; [28] | [12]; [28] | [13]; [28] | [15]; [28] | [17]; [28] | [18]; [28] | [20]; [28] | [21]; [28] | [22]; [28] | [24]; [28] | [26]; [28]
3.48: [8]; [28]
3.74: [25]; [28]
4.14: [14]; [28]
